± gives the uncertainty stated by the source.

This data set in a line: amyloid nucleation score (Sup35N fusion, yeast selection) (log enrichment); library NNK3; higher = more nucleation; inactive = no reads after selection. The gist of the method: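 Using DiMSum, nucleation scores were taken as the log enrichment of output over input reads, centred on the mode score of non-aggregating sequences. The input and output reads came from Illumina sequencing of plasmid inserts, with sequences under 100 input reads excluded. The yeast were psi-negative, expressed Sup35N fused to peptides of 20 random codons, were induced with 100 μM copper sulfate for 24 hours, and were grown 7 days at 30°C on medium lacking adenine and uracil.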
On to WFWLRRSFGFYHVKSSNSFT, for which the amyloid nucleation score result is “inactive”.

Take VTVSPWLFFVWNDGLCSARL: the amyloid nucleation score was found to be 1.05 ± 0.096.

Regarding IDRLLLNTKYIVQGLPNWTK, the amyloid nucleation score result was “inactive”.

The substance NLTYVMGSGWLLYQCVIM came in with an amyloid nucleation score of 2.61 ± 0.057.

With LLLTYFMMGYYVVWYVFGYW, the amyloid nucleation score entry is “inactive”.

Turning to YWSCRWGLVLVS, the amyloid nucleation score result is “inactive”.

Regarding TRNLPTN, the amyloid nucleation score result is “inactive”.

On to TFWLH, for which the amyloid nucleation score was 0.156 ± 0.88.

IILVSYVREMKHSSSSFVLS gave an amyloid nucleation score of 2.04 ± 0.098.

EVVGVYRERMSSFLLQGVLL yielded an amyloid nucleation score of -0.042 ± 0.98.

With GHIWFIAEVNSICYLLFLVS, the amyloid nucleation score result was “inactive”.

On to YKIMTLYTSCKRFEVHRGCT, for which the amyloid nucleation score result is “inactive”.

In turn, MIRLSDTRRWIVYFHQCLCG showed an amyloid nucleation score of -0.748 ± 1.

In the case of LQNLNGLIVKSCL, the amyloid nucleation score entry is “inactive”.

In turn, CGPHTSYRTMIVLNIRYNFY registered an amyloid nucleation score of 1.46 ± 0.099.

Turning to TYYADTLAFNSTS, the amyloid nucleation score entry is “inactive”.

As to ISMHPERQVMMRLPCRMCCL, the amyloid nucleation score result was “inactive”.

Consider WSEHGQWMYNRLCGSGFISH, for which the amyloid nucleation score result was “inactive”.

SHECNLCFNVL: the amyloid nucleation score result is “inactive”.

As to RGKYFGCYLSVYSHL, the amyloid nucleation score entry is “inactive”.

Regarding QTLFRTLWRFIIITAKQSSD, the amyloid nucleation score result was “inactive”.

Consider ASRKTFYAL, for which the amyloid nucleation score result was “inactive”.

For RVNHGGNLTRAKHERLFHLK, the amyloid nucleation score entry was “inactive”.

For the substance DPKTSYNADLAIGSCLLIDF, the amyloid nucleation score entry was “inactive”.

TFKMQWECVIA showed an amyloid nucleation score of 0.657 ± 0.16.

MSLLGQ: the amyloid nucleation score result is “inactive”.

MMVRWEVTV: the amyloid nucleation score is -0.172 ± 1.

Turning to RDCSSAIYKCTWCMSF, the amyloid nucleation score entry was “inactive”.

INWFGVRYRYDSSNYFMYQL: the amyloid nucleation score amounted to 0.986 ± 0.21.

With SWEFPTDKSYMSCREPENPM, the amyloid nucleation score result was “inactive”.

With CRGTWDNDAVGRVDRNSRKS, the amyloid nucleation score entry was “inactive”.

For NEDLIDVQVVHC, the amyloid nucleation score entry is “inactive”.

Regarding FCLPICFD, the amyloid nucleation score entry was “inactive”.

As for DCVYSSPCGVALIDLGAGLK, the amyloid nucleation score entry was “inactive”.

In the case of SDMVVKGERGYICILICRLR, the amyloid nucleation score entry is “inactive”.

With DHLWIPPWLYAPAMLWSWML, the amyloid nucleation score result was “inactive”.

As for VVMCGCSSSRMGLGPVYRTF, the amyloid nucleation score result is “inactive”.

In the case of TLRVYAMVLTWAPKLSFWRS, the amyloid nucleation score entry was “inactive”.

With ISINYVPDMFDLRDYFTVIL, the amyloid nucleation score result was “inactive”.

As for QKESYHY, the amyloid nucleation score result was “inactive”.

In the case of FLWLKHSQSHVRERL, the amyloid nucleation score result is “inactive”.

For the substance FYAYVSVDTVCSVAICLICT, the amyloid nucleation score result was “inactive”.

With YPSSPGH, the amyloid nucleation score result was “inactive”.

IKAPRFYAPFLLIVSQWVST: the amyloid nucleation score entry was “inactive”.

Turning to GQLYVMSRSDQARDSFELDA, the amyloid nucleation score result is “inactive”.

As to HEIQGC, the amyloid nucleation score entry is “inactive”.

Consider VVDDIWRPIDL, for which the amyloid nucleation score entry is “inactive”.

Consider KYCYIEWN, for which the amyloid nucleation score result is “inactive”.

Regarding RLYLKTDVSDTRHRYMWLSE, the amyloid nucleation score result is “inactive”.

In the case of RYCNVFVKIVALCGYKGSWS, the amyloid nucleation score came to 2.64 ± 0.06.

As for VVAIWLLGAINMLITTIYSS, the amyloid nucleation score result is “inactive”.

Turning to PRIRD, the amyloid nucleation score entry is “inactive”.

YTGYWTGLYYVFMEINGWGS: the amyloid nucleation score result was “inactive”.

LFLYLCTVYNDFKELQPRNL gave an amyloid nucleation score of 2.67 ± 0.07.

As to VTSIPIPR, the amyloid nucleation score result was “inactive”.

Turning to KPCHLYMTAEDTYVWMSVGL, the amyloid nucleation score result is “inactive”.

In the case of GSRGYGWFMKTFAYPRNCKN, the amyloid nucleation score result is “inactive”.

For VRNNVCRPVCYGWNGGYITV, the amyloid nucleation score result was “inactive”.

For FRILIIFSVYGSMISHLP, the amyloid nucleation score result was “inactive”.

On to AITGFNRKVDYLGSGECVEH, for which the amyloid nucleation score entry is “inactive”.

Substance PTTKYFLYNIYSFV returned an amyloid nucleation score of 2.02 ± 0.079.

As to WMLLLTV, the amyloid nucleation score result was “inactive”.

In the case of MIRWTWNRKHTII, the amyloid nucleation score result is “inactive”.

SNTYCVPYRKGEELVYCGSW: the amyloid nucleation score result was “inactive”.

On to KSWGLVHKCSSAFMFPKFCP, for which the amyloid nucleation score entry is “inactive”.

Turning to FRSKLTW, the amyloid nucleation score result is “inactive”.

HGNRVFYFELHSYPVLDSAM registered an amyloid nucleation score of 0.984 ± 0.17.

As to HAGVHWFERGSFHWMLFINY, the amyloid nucleation score result was “inactive”.

As to NGVVLLQIKIRDPRSCWWGV, the amyloid nucleation score result was “inactive”.

As for FLVICCCWD, the amyloid nucleation score was determined as 2.08 ± 0.062.

Regarding YLVSIRNNYRCEV, the amyloid nucleation score entry was “inactive”.

Take LDVGIVYSLVVCRKIRRSL: the amyloid nucleation score result was “inactive”.

Consider TLGTLSICLCIFRYPGKTEA, for which the amyloid nucleation score result is “inactive”.

RVYGLFTLQYWYLNLYTKGR gave an amyloid nucleation score of 0.548 ± 0.36.

Regarding SVYLGFIVGSVHPTHVISMR, the amyloid nucleation score entry was “inactive”.

Take RTNQLREPRANRWEGLAVLK: the amyloid nucleation score entry was “inactive”.

Turning to HLRVMLLCFREYWDYAIMAL, the amyloid nucleation score entry is “inactive”.

Turning to RIGVTYWGICSLKLT, the amyloid nucleation score entry is “inactive”.

Take RITSDALG: the amyloid nucleation score entry is “inactive”.

TYKHTSWETLDDVFSDGSSS: the amyloid nucleation score entry is “inactive”.

Regarding KRYCSLMML, the amyloid nucleation score result was “inactive”.

In the case of ANGLAGDYE, the amyloid nucleation score was -0.578 ± 1.3.

As for NFTSFCFSKMSRLEDSGQ, the amyloid nucleation score entry was “inactive”.

As to VRLFRVLWRIIPDGVSMKSV, the amyloid nucleation score entry is “inactive”.

For the substance ALMGHE, the amyloid nucleation score entry is “inactive”.

For the substance LCFMRHSLRGWG, the amyloid nucleation score was -0.415 ± 0.96.

Turning to KVLMST, the amyloid nucleation score was -0.443 ± 1.4.

Take WLCLEYMVDEADNFSDGAWM: the amyloid nucleation score entry was “inactive”.

As to STTFDLARWASVKSVHFCYF, the amyloid nucleation score entry was “inactive”.

On to PAKPGL, for which the amyloid nucleation score result was “inactive”.

Regarding RAFLPYYAGYEDRTQSWL, the amyloid nucleation score result is “inactive”.

In the case of SALLNRLSVSLYWMYGMSFM, the amyloid nucleation score entry was “inactive”.

Turning to TGIGSLCVLRLTYFIRVSIA, the amyloid nucleation score entry is “inactive”.

With MTPMRAAMTLICHMPARRFS, the amyloid nucleation score entry is “inactive”.

The substance FDIIVQITYHVWNMNVHF had an amyloid nucleation score of 0.932 ± 0.1.

Take WDMENFLD: the amyloid nucleation score result is “inactive”.

In the case of VRSCAKLPSVHKYLAQARRL, the amyloid nucleation score result was “inactive”.

As to FMGSGQVVNTRASGIMGLFF, the amyloid nucleation score result was “inactive”.
